Primed or numbered codes have the meaning given here. No end group written: not given here. FITC′ = fluorescein isothiocyanate
Molecular target: PEX5 TPR domain (C-terminal cargo-binding TPR domain of human PEX5L) (human, UniProt P50542-1 315-639)
Experiment: fluorescence polarisation

## {FITC′}-SAPKIPSWQIPVKSPSPS [N-terminal FITC conjugated SAPKIPSWQIPVKSPSPS PEX14 peptide]
  Kd: 250 µM
